Measured values: the supplement of paper PMC9170038

System: MS2 coat protein
Assay: apparent KD of MS2 coat protein; designed switch direction (-1 OFF switch, 1 ON switch): 1; higher = weaker reporter binding
Method in brief: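 Stalled E. coli RNA polymerase transcribed designed RNA switches on Illumina chips, which were then titrated with SNAP-549-labelled MS2 coat protein, doubling from 0.7 or 1.5 nM to 3 µM. Steps lasted from 0.8–1.5 h at the lowest concentration to 10–20 min at the highest. The apparent KD is each design's median over clusters of curve-fitted normalised fluorescence.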

[1] = input ligand: microRNA oligo, concentration not stated
[2] = Eterna round: R95, input ligand: FMN 200 uM
[3] = Eterna round: R95, input ligand: microRNA oligo, concentration not stated
[4] = Eterna round: R95, input ligand: none

Sequence | apparent KD of MS2 coat protein (input ligand: FMN 200 uM) [nM] | apparent KD of MS2 coat protein [1] [nM] | apparent KD of MS2 coat protein (input ligand: none) [nM] | apparent KD of MS2 coat protein [2] [nM] | apparent KD of MS2 coat protein [3] [nM] | apparent KD of MS2 coat protein [4] [nM]
AGCUAUUACGAAGGAUAUUGUGACAUGAGGAUCACCCAUGUUUGCAUGAUUAAUUGUGAUCACGUCGAGAAGGUUGUACUAACA [SameState NG2 #31] (Eterna round: R96, puzzle: Same State NG 2) | 26.2 | 20.9 | 29.5 | – | – | –
UGACACACGGCAGGAUAUCGAUAGCAAAGCUAUCGAGAAGGGCCUCAUGUCGUGGAAACGUGACAUGAGGAUCACCCAUGUUGC [Omei SS(NG)1 Cv11] (Eterna round: R96, puzzle: Same State NG 1) | 280 | 8.42 | 51.4 | – | – | –
AUAACACUGGCAGGAUAUGGGAUUGGAAGUGUUCCAGAAGGGCCAGAACGGCGAUGGACAUGAGGAUCACCCAUGUCUUAGCCU [MOD Powerstrip SSNG 1.4 (Unstable)] (Eterna round: R96, puzzle: Same State NG 1) | 13 | 7.66 | 9.48 | – | – | –
ACACCACAUGAGGAUCACCCAUGUGUCAAUAACACAGGAUAUCACCCGGAAAACAACGGGUGAGAAGGGUGACCGA [Edan] (puzzle: Same State 1) | – | – | – | 107 | 44.6 | 75.8
UGAAUAGUGAUAGGAUAUACAUGAGGAAUCCUCGUAGAAGGAUCACGACAUGAGGAUCACCCAUGUAGCCGUCGAAAGACGGCA [Mat - Same State NG 1 - JL mod - D61] (Eterna round: R96, puzzle: Same State NG 1) | 924 | 86.1 | 192 | – | – | –
GUUACAUGAGGAUCACCCAUGUAUGUGUGGGAGUAAGUGUCUUAGGAUAUCUAUGAUUUAAUUUGAGAGAAGGAAGAUUGUUGU [JMF's solution 87] (Eterna round: R96, puzzle: Same State NG 3) | 88.8 | 76.4 | 102 | – | – | –
ACAUGAGGAUCACCCAUGUAUGCUCAGGAAACUGUGCAUCAUGAGGAUAUGGAUCCUAAUUGGAUCCAGAAGGCAUGUAUUAUU [Fiskers NG3ss - 28] (Eterna round: R96, puzzle: Same State NG 3) | 699 | 39.1 | 45 | – | – | –
AGCUAUCGAAAACGAUAGCAGAAGCAUGUACAUGAGGAUCACCCAUGUCAUGUACAAGCUUUUUGCUCGUCUUAAAA [Zipper 23 - 1] (puzzle: Sensor for hsa-mir-208a) | – | – | – | 360 | 17.8 | 703
UAUUUAAUCAUAGGAUAUAGUGUGAAAUUUGGACUAGAAGGAUGUAACAUGAGGAUCACCCAUGUGGUAAGUGGGACACAGUGU [JR_SSNG1_Sub095] (Eterna round: R96, puzzle: Same State NG 1) | 164 | 69.4 | 141 | – | – | –
AGUCCUGAAAAGAAAAUACAGAGAUAUGUACAUGAGGAUCACCCAUGUCAUGUACAAGUUCUAUGCUCGUCAUAUAA [Sensorship 21 - Jieux - Sensor for hsa-mir-208a] (puzzle: Sensor for hsa-mir-208a) | – | – | – | 202 | 63.6 | 262
UUUGCAUGACGAGGAUAUCAUUUAUUUCUUGAUUGAGAAGGCGUUCUUUUUAUUACCUAACAUGAGGAUCACCCAUGUGACAGU [JR_SSNG1_Sub046] (Eterna round: R96, puzzle: Same State NG 1) | 13.2 | 10.3 | 16.7 | – | – | –
AUUAUUUAUGCAGGAUAUGAUUAACAUGAGGAUCACCCAUGUGGUGUUGUGAGUAAGGAGAGUGAUCAGAAGGGCAAUUUUUUU [JMF's solution 42] (Eterna round: R96, puzzle: Same State NG 2) | 709 | 387 | 375 | – | – | –
CUCCAUUGGGUAGGAUAUCUAGGAUAUGGGAAAGACUAAGUCUGUAGGUCACCUAACCCAGAUGGAGAGAAGGACCCAACACUC [pwkr ssNG2 2FMN + F9.40] (Eterna round: R96, puzzle: Same State NG 2) | 15.1 | 15.2 | 23.2 | – | – | –
GUUACAUGAGGAUCACCCAUGUAUGUGUGGGAGUAAGUGUCUUAGGAUAUCUAUGAUGUAAUUUAAGAGAAGGAAGAUUGUUGU [JMF's solution 76] (Eterna round: R96, puzzle: Same State NG 3) | 135 | 128 | 150 | – | – | –
GCAGGACAUGAGGAUCACCCAUGUUCCAAAUAUUGAGGAUAUGGAUACGGUAUAUCCGAACCAGAAGGCAACCUGC [SS1 Teenbexe 21] (puzzle: Same State 1) | – | – | – | 25.3 | 22.1 | 23.3
GUUAGGAAUCUAGCAAACAUGAGGAUCACCCAUGUAAGUGGGAAGGAUAUGGUACAGAAACUGUACCAGAAGGUCUUAUUGAUU [Omei SS(NG) 3 AV5] (Eterna round: R96, puzzle: Same State NG 3) | 81.7 | 247 | 371 | – | – | –

Sequence | apparent KD of MS2 coat protein (input ligand: FMN 200 uM) [nM] | apparent KD of MS2 coat protein [1] [nM] | apparent KD of MS2 coat protein (input ligand: none) [nM] | apparent KD of MS2 coat protein [2] [nM] | apparent KD of MS2 coat protein [3] [nM] | apparent KD of MS2 coat protein [4] [nM]
CCGAUGACAGGACAGGAUAUGACUGUCGUCACAUGAGGAUCACCCAUGUCCCGGCAAUGCCACCGUUAGAAGGGUCCUAUCUCGG [Arxeina] (puzzle: Same State 2) | – | – | – | 16.7 | 16.3 | 18.2
UGUCCAGCCUGUGCUGGUCUUUUGCAUGUACAUGAGGAUCACCCAUGUCGUGUACAUGCUUUUUGCUCGUCUUUAAA [Photon Torp-04] (puzzle: Sensor for hsa-mir-208a) | – | – | – | 181 | 25.4 | 317
UCUUGGUUUUUGCUCGUUUUUUGUGUUGAACAUGAGGAUCACCCAUGUAUUGUACAGUCCAAUUUAAUAAUGGUCCG [JMF 53] (puzzle: Sensor for hsa-mir-208a) | – | – | – | 34.2 | 25.4 | 46.7
AUUUAACAAGCUUUUUGCUCGUCUUAUAAACAUGAGGAUCACCCAUGUAAUAGCGUGAGAGUAAAUAUAUAAAUAAU [JMF 85] (puzzle: Sensor for hsa-mir-208a) | – | – | – | 13.8 | 42.2 | 11.9
UUUAUAUUCAGAGGAUAUUAAUGUAGUAUAACAUAAGAAGGCUGUUUGUUUUGUAAAGUAAUUCUACAUGAGGAUCACCCAUGU [JR_SSNG1_Sub084] (Eterna round: R96, puzzle: Same State NG 1) | – | 15.5 | – | – | – | –
GGAGCCAAGGCAGGAUAUUCAUAUUAAUUACAUGAGGAUCACCCAUGUUGGGCCAGAAGGCCUUGGGAGAAGGGCCAUGGCUCG [Xeonanis - 13 mod18] (Eterna round: R96, puzzle: Same State NG 2) | 27.1 | 56.5 | 84 | – | – | –
UUAAAACAUGAGGAUCACCCAUGUCAUCUAAGUCGAGGAUAUGGGAAUUAAUUAAUUAAACCAGAAGGCGAAUAUU [Mat - Same State 1 - D90] (puzzle: Same State 1) | – | – | – | 38.6 | 439 | 543
CUCAAAACAAGCUGCAGUGUUCGUCUUUCACAUGAGGAUCACCCAUGUAGUAGCCCAGUGGAAGCGCUCGGGCCACC [Eronrace] (puzzle: Sensor for hsa-mir-208a) | – | – | – | 55 | 24.9 | 54.1
GCUACCAAUGAAGCCAACAUGAGGAUCACCCAUGUAUGUUGGUAGGAUAUCGUUUGCUUUGCAAACGAGAAGGGCUAAGGUAGC [JL SSNG3 1.26] (Eterna round: R96, puzzle: Same State NG 3) | 42.2 | 39.2 | 42.6 | – | – | –
GGAUGAUUAAUAGGAUAUUAUUUGUAAAUUGGUUAAGAAGGAUUAAUGAUUUAAACGACCUGUUACAUGAGGAUCACCCAUGUU [JR_SSNG1_Sub090] (Eterna round: R96, puzzle: Same State NG 1) | – | 33.2 | – | – | – | –
AUGAAGAAUUAAGGAUAUUGAUUACAUAUGUUUAACAUGAGGAUCACCCAUGUGGGUUGCGGUAUCGAGAAGGUAAAAUAAUAG [Mat - same State NG 2 - JL mod - D85] (Eterna round: R96, puzzle: Same State NG 2) | 187 | 123 | 158 | – | – | –
AGCUAUUACGAAGGAUAUUGUGACAUGAGGAUCACCCAUGUUUUCAUGAUUAAUUGUGAUCACGUCGAGAAGGUUGUACUAACA [SameState NG2 #30] (Eterna round: R96, puzzle: Same State NG 2) | – | 43 | – | – | – | –
UGUUGUAUUACAGGAUAUCUAGUAUUUUUAGUUAGAGAAGGGUAUUCACAUGAGGAUCACCCAUGUAUAUACGAGGAAGUUGUG [JMF's solution 49] (Eterna round: R96, puzzle: Same State NG 1) | 43.7 | 36.9 | 45.7 | – | – | –
GCGACGGCGAAAGGAUAUCAAAAUCAACAGUGUUGAGAAGGUUCUCCGAGGGUCGCACAUGAGGAUCACCCAUGUCGCGAAUCU [Eternabot solution 35] (Eterna round: R96, puzzle: Same State NG 1) | – | 9.02 | – | – | – | –
GCUGGAACUCACAUGAGGAUCACCCAUGUUCCGGAAACGGCACAGGAUAUCUGUCCGAAAAGGUCAGAGAAGGGUGGAACCAGC [Fiskers NG3ss - 88] (Eterna round: R96, puzzle: Same State NG 3) | 189 | 43.5 | 90.4 | – | – | –
